# Reference: the supplement of paper PMC7877785
# ± gives the uncertainty stated by the source.
# Test: self-splicing fitness, log relative to wild type (ln ratio); higher = more splicing; Tetrahymena group I intron in knt gene, E. coli kanamycin selection, DiMSum; sequences stand for … in CUCUCU…GGAGGGAAAAGUUAUCAGGCAUGCACCUGGUAGCUAGUCUUUAAACCAAUAGAUUGCAUCGGUUUAAAAGGCAAGACCGUCAAAUUGCGGGAAAGGGGUCAACAGCCGUUCAGUACCAAGUCUCAGGGGAAACUUUGAGAUGGCCUUGCAAAGGGUAUGGUAAUAAGCUGACGGACAUGGUCCUAACCACGCAGCCAAGUCCUAAGUCAACAGAUCUUCUGUUGAUAUGGAUGCAGUUCACAGACUAAAUGUCGGUCGGGGAAGAUGUAUUCUUCUCAUAAGAUAUAGUCGGACCUCUCCUUAAUGGGAGCUAGCGGAUGAAGUGAUGCAACACUGGAGCCGCUGGGAACUAAUUUGUAUGCGAAAGUAUAUUGAUUAGUUUUGGAGUACUCGUGGUCG
# How it was run: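 Pooled colonies went to amplicon sequencing on an Illumina HiSeq 2500 after six replicate transformations. The plates were LB agar with 100 μg/mL carbenicillin, 50 μM IPTG and 0.2% rhamnose, with or without 25 μg/mL kanamycin, incubated overnight at 37°C or 30°C. The E. coli BL21(DE3) library had all eight P1ex-region intron nucleotides randomised, the intron placed in the knt kanamycin-resistance gene on pET-22b(+). DiMSum fitness is the error-weighted combination of replicate fold changes, kanamycin against none, normalised to wild type.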
Sequence,self-splicing fitness (ln) (30 °C),self-splicing fitness (ln) (37 °C)
ACAAAGCAAUAUUACGGGCC,-3.9 ± 0.3,-2.32 ± 0.24
ACAAAGCAAUAUUACGGGCG,-0.625 ± 0.05,0.111 ± 0.067
ACAAAGCAAUAUUACGGGUG,-1.21 ± 0.046,-0.593 ± 0.064
ACAAAGCAAUAUUACGUACA,-1.6 ± 0.083,-0.786 ± 0.089
ACAAAGCAAUAUUACGUACU,-0.16 ± 0.049,-0.0261 ± 0.072
ACAAAGCAAUAUUACGUCGU,-2.74 ± 0.093,-2.05 ± 0.12
ACAAAGCAAUAUUACGUGAG,-0.439 ± 0.049,-0.4 ± 0.079
ACAAAGCAAUAUUACGUGAU,-1.51 ± 0.063,-1.09 ± 0.086
ACAAAGCAAUAUUACGUGGC,-3.72 ± 0.21,-2.91 ± 0.18
ACAAAGCAAUAUUACGUUAA,-2.91 ± 0.17,-1.32 ± 0.12
ACAAAGCAAUAUUACGUUGA,-1.49 ± 0.079,-1.24 ± 0.089
ACACAGCAAUAUUACGAAAG,-2.32 ± 0.074,-2.06 ± 0.11
ACACAGCAAUAUUACGACAA,-1.86 ± 0.11,-0.755 ± 0.14
ACACAGCAAUAUUACGACUC,-0.737 ± 0.063,-0.631 ± 0.072
ACACAGCAAUAUUACGAGGG,-3.71 ± 0.11,-1.85 ± 0.1
ACACAGCAAUAUUACGAGUG,-1.43 ± 0.041,-0.923 ± 0.057
ACACAGCAAUAUUACGAUCC,-1.21 ± 0.093,-0.951 ± 0.13
ACACAGCAAUAUUACGAUCU,-0.658 ± 0.053,0.14 ± 0.082
ACACAGCAAUAUUACGAUGC,-1.92 ± 0.073,-0.965 ± 0.094

Sequence,self-splicing fitness (ln) (30 °C),self-splicing fitness (ln) (37 °C)
ACACAGCAAUAUUACGAUUU,-0.589 ± 0.036,0.0571 ± 0.056
ACACAGCAAUAUUACGCAUA,-2.45 ± 0.08,-1.49 ± 0.072
ACACAGCAAUAUUACGCCAC,-3.38 ± 0.33,-2.66 ± 0.31
ACACAGCAAUAUUACGCCAG,-2.45 ± 0.1,-1.13 ± 0.13
ACACAGCAAUAUUACGCCGA,-1.15 ± 0.08,-1.34 ± 0.094
ACACAGCAAUAUUACGCGAA,-2.47 ± 0.12,-1.4 ± 0.12
ACACAGCAAUAUUACGCUGC,-2.18 ± 0.16,-1.14 ± 0.15
ACACAGCAAUAUUACGGAAA,-3.13 ± 0.26,-2.5 ± 0.22
ACACAGCAAUAUUACGGACA,-1.63 ± 0.095,-1.04 ± 0.089
ACACAGCAAUAUUACGGCGA,-0.436 ± 0.086,-0.165 ± 0.09
ACACAGCAAUAUUACGGGCA,-1.48 ± 0.078,-0.0778 ± 0.091
ACACAGCAAUAUUACGGGCC,-3.37 ± 0.19,-2.11 ± 0.18
ACACAGCAAUAUUACGGGGG,-2.9 ± 0.14,-2.45 ± 0.15
ACACAGCAAUAUUACGGUCA,-0.813 ± 0.071,0.0237 ± 0.077
ACACAGCAAUAUUACGUACA,-1.05 ± 0.059,-0.954 ± 0.068
ACACAGCAAUAUUACGUACG,-1.19 ± 0.067,-0.925 ± 0.081
ACACAGCAAUAUUACGUGCC,-1.71 ± 0.12,-0.549 ± 0.093
ACACAGCAAUAUUACGUUGA,-1.91 ± 0.091,-1.92 ± 0.11
